Series [1] has as its system HeLa Kyoto. Briefly: thermal stability score vs G1/S (z-score of summed log2 fold changes over temperatures); higher = more thermally stable than in G1/S.
Series [2] relates to HeLa Kyoto. The experiment in a line: solubility in G1/S (NP-40 vs SDS abundance) (log2 ratio); higher = more soluble. The following applies: cell cycle stage: G1/S.
Series [3] concerns HeLa Kyoto. Briefly: melting temperature (median over replicates), in situ; higher = more thermally stable.
Series [4] relates to HeLa Kyoto. Briefly: solubility change mitosis vs G1/S (difference of NP-40 vs SDS log2 ratios) (log2 ratio difference); higher = more soluble in mitosis.
Where [5] appears, read: cell cycle stage: early G1 (4.5 h after nocodazole release).
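For melting temperature (median over replicates), in situ in this document: HeLa Kyoto cells synchronized by double thymidine or nocodazole block, proteins quantified by TMT10plex mass spectrometry, three independent biological replicates.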
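For solubility change mitosis vs G1/S (difference of NP-40 vs SDS log2 ratios) in this document: synchronized HeLa Kyoto cells (double thymidine block for G1/S, nocodazole release for mitosis), protein amounts in NP-40 versus SDS lysates quantified by mass spectrometry, three biological replicates.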
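For solubility in G1/S (NP-40 vs SDS abundance) in this document: HeLa Kyoto cells arrested at G1/S by double thymidine block, proteins quantified by TMT10plex mass spectrometry in mild NP-40 versus SDS extracts, three biological replicates.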
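For thermal stability score vs G1/S (z-score of summed log2 fold changes over temperatures) in this document: synchronized HeLa Kyoto cells, proteins quantified by TMT10plex mass spectrometry, three biological replicates, mitosis taken 0.5 h after nocodazole release, G1/S directly after double thymidine block.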

As for “MTDSKYFTTTKKGEIFELKAELNSDKKEKKKEAVKKVIASMTVGKDVSALFPDVVNCMQTDNLELKKLVYLYLMNYAKSQPDMAIMAVNTFVKDCEDPNPLIRALAVRTMGCIRVDKITEYLCEPLRKCLKDEDPYVRKTAAVCVAKLHDINAQLVEDQGFLDTLKDLISDSNPMVVANAVAALSEIAESHPSSNLLDLNPQSINKLLTALNECTEWGQIFILDCLANYMPKDDREAQSICERVTPRLSHANSAVVLSAVKVLMKFMEMLSKDLDYYGTLLKKLAPPLVTLLSAEPELQYVALRNINLIVQKRPEILKHEMKVFFVKYNDPIYVKLEKLDIMIRLASQANIAQVLAELKEYATEVDVDFVRKAVRAIGRCAIKVEQSAERCVSTLLDLIQTKVNYVVQEAIVVIKDIFRKYPNKYESVIATLCENLDSLDEPEARAAMIWIVGEYAERIDNADELLESFLEGFHDESTQVQLQLLTAIVKLFLKKPTETQELVQQVLSLATQDSDNPDLRDRGYIYWRLLSTDPVAAKEVVLAEKPLISEETDLIEPTLLDELICYIGTLASVYHKPPSAFVEGGRGVVHKSLPPRTASSESAESPETAPTGAPPGEQPDVIPAQGDLLGDLLNLDLGPPVSGPPLATSSVQMGAVDLLGGGLDSLMGDEPEGIGGTNFVAPPTAAVPANLGAPIGSGLSDLFDLTSGVGTLSGSYVAPKAVWLPAMKAKGLEISGTFTRQVGSISMDLQLTNKALQVMTDFAIQFNRNSFGLAPAAPLQVHAPLSPNQTVEISLPLSTVGSVMKMEPLNNLQVAVKNNIDVFYFSTLYPLHILFVEDGKMDRQMFLATWKDIPNENEAQFQIRDCPLNAEAASSKLQSSNIFTVAKRNVEGQDMLYQSLKLTNGIWVLAELRIQPGNPSCTDLELSLKCRAPEVSQHVYQAYETILKN [AP1B1]”, the thermal stability score in series [1] (setting [5]) was -0.616; in series [1] (cell cycle stage: mitosis), 0.595. The “solubility in G1/S (log2)” value in series [2] turned out to be 0.297. For the same sequence, the melting temperature amounted to 51.7 °C in series [3] (cell cycle stage: G1/S) and 51.1 °C in series [3] (cell cycle stage: mitosis). Moreover, in series [4], the “solubility change mitosis (log2)” value was -0.225.
Take “MTDYGEEQRNELEALESIYPDSFTVLSENPPSFTITVTSEAGENDETVQTTLKFTYSEKYPDEAPLYEIFSQENLEDNDVSDILKLLALQAEENLGMVMIFTLVTAVQEKLNEIVDQIKTRREEEKKQKEKEAEEAEKQLFHGTPVTIENFLNWKAKFDAELLEIKKKRMKEEEQAGKNKLSGKQLFETDHNLDTSDIQFLEDAGNNVEVDESLFQEMDDLELEDDEDDPDYNPADPESDSAD [RWDD1]”: the thermal stability score in series [1] (setting [5]) stood at 0.855; in series [1] (cell cycle stage: mitosis) it was 0.947. Further, in series [2], the “solubility in G1/S (log2)” value stood at 0.348. Also, the melting temperature amounted to 52.7 °C in series [3] (cell cycle stage: G1/S) and 54 °C in series [3] (cell cycle stage: mitosis). Also, the “solubility change mitosis (log2)” value in series [4] turned out to be 0.0192.
On to “MTELETAMGMIIDVFSRYSGSEGSTQTLTKGELKVLMEKELPGFLQSGKDKDAVDKLLKDLDANGDAQVDFSEFIVFVAAITSACHKYFEKAGLK [S100P]”, for which the thermal stability score in series [1] (setting [5]) is -0.94; in series [1] (cell cycle stage: mitosis), -5.53. The “solubility in G1/S (log2)” value in series [2] is -0.525. Besides, the melting temperature in series [3] (cell cycle stage: G1/S) amounted to 54.1 °C; in series [3] (cell cycle stage: mitosis), 51 °C. Further, the “solubility change mitosis (log2)” value in series [4] was 0.32.
In the case of “MTELRQRVAHEPVAPPEDKESESEAKVDGETASDSESRAESAPLPVSADDTPEVLNRALSNLSSRWKNWWVRGILTLAMIAFFFIIIYLGPMVLMIIVMCVQIKCFHEIITIGYNVYHSYDLPWFRTLSWYFLLCVNYFFYGETVTDYFFTLVQREEPLRILSKYHRFISFTLYLIGFCMFVLSLVKKHYRLQFYMFGWTHVTLLIVVTQSHLVIHNLFEGMIWFIVPISCVICNDIMAYMFGFFFGRTPLIKLSPKKTWEGFIGGFFATVVFGLLLSYVMSGYRCFVCPVEYNNDTNSFTVDCEPSDLFRLQEYNIPGVIQSVIGWKTVRMYPFQIHSIALSTFASLIGPFGGFFASGFKRAFKIKDFANTIPGHGGIMDRFDCQYLMATFVNVYIASFIRGPNPSKLIQQFLTLRPDQQLHIFNTLRSHLIDKGMLTSTTEDE [CDS2]”, the results for the thermal stability score in series [1] (setting [5]) and in series [1] (cell cycle stage: mitosis) were -3.65 and -6.01, respectively. Moreover, the “solubility in G1/S (log2)” value in series [2] is -0.102. Further, the melting temperature in series [3] (cell cycle stage: G1/S) was determined as 57.3 °C; in series [3] (cell cycle stage: mitosis) it was 56 °C. Moreover, the “solubility change mitosis (log2)” value in series [4] was -0.168.
Take “MTGRAMDPLPAAAVGAAAEAEADEEADPPASDLPTPQAIEPQAIVQQVPAPSRMQMPQGNPLLLSHTLQELLARDTVQVELIPEKKGLFLKHVEYEVSSQRFKSSVYRRYNDFVVFQEMLLHKFPYRMVPALPPKRMLGADREFIEARRRALKRFVNLVARHPLFSEDVVLKLFLSFSGSDVQNKLKESAQCVGDEFLNCKLATRAKDFLPADIQAQFAISRELIRNIYNSFHKLRDRAERIASRAIDNAADLLIFGKELSAIGSDTTPLPSWAALNSSTWGSLKQALKGLSVEFALLADKAAQQGKQEENDVVEKLNLFLDLLQSYKDLCERHEKGVLHKHQRALHKYSLMKRQMMSATAQNREPESVEQLESRIVEQENAIQTMELRNYFSLYCLHQETQLIHVYLPLTSHILRAFVNSQIQGHKEMSKVWNDLRPKLSCLFAGPHSTLTPPCSPPEDGLCPH [SNX8]”: the thermal stability score in series [1] (setting [5]) was -2.07; in series [1] (cell cycle stage: mitosis) it was -2.85. Besides, the “solubility in G1/S (log2)” value in series [2] is 0.249. For the same sequence, the melting temperature in series [3] (cell cycle stage: G1/S) was 54 °C; in series [3] (cell cycle stage: mitosis) it was 55.7 °C. Also, the “solubility change mitosis (log2)” value in series [4] was -0.153.
Turning to “MTKKRKRQHDFQKVKLKVGKKKPKLQNATPTNFKTKTIHLPEQLKEDGTLPTNNRKLNIKDLLSQMHHYNAGVKQSALLGLKDLLSQYPFIIDAHLSNILSEVTAVFTDKDANVRLAAVQLLQFLAPKIRAEQISPFFPLVSAHLSSAMTHITEGIQEDSLKVLDILLEQYPALITGRSSILLKNFVELISHQQLSKGLINRDRSQSWILSVNPNRRLTSQQWRLKVLVRLSKFLQALADGSSRLRESEGLQEQKENPHATSNSIFINWKEHANDQQHIQVYENGGSQPNVSSQFRLRYLVGGLSGVDEGLSSTENLKGFIEIIIPLLIECWVEAVPPQLATPVGNGIEREPLQVMQQVLNIISLLWKLSKQQDETHKLESWLRKNYLIDFKHHFMSRFPYVLKEITKHKRKEPNKSIKHCTVLSNNIDHLLLNLTLSDIMVSLANASTLQKDCSWIEMIRKFVTETLEDGSRLNSKQLNRLLGVSWRLMQIQPNREDTETLIKAVYTLYQQRGLILPVRTLLLKFFSKIYQTEELRSCRFRYRSKVLSRWLAGLPLQLAHLGSRNPELSTQLIDIIHTAAARANKELLKSLQATALRIYDPQEGAVVVLPADSQQRLVQLVYFLPSLPADLLSRLSRCCIMGRLSSSLAAMLIGILHMRSSFSGWKYSAKDWLMSDVDYFSFLFSTLTGFSKEELTWLQSLRGVPHVIQTQLSPVLLYLTDLDQFLHHWDVTEAVFHSLLVIPARSQNFDILQSAISKHLVGLTVIPDSTAGCVFGVICKLLDHTCVVSETLLPFLASCCYSLLYFLLTIEKGEAEHLRKRDKLWGVCVSILALLPRVLRLMLQSLRVNRVGPEELPVVGQLLRLLLQHAPLRTHMLTNAILVQQIIKNITTLKSGSVQEQWLTDLHYCFNVYITGHPQGPSALATVY [TEX10]”, the thermal stability score in series [1] (setting [5]) was -1.74; in series [1] (cell cycle stage: mitosis) it was -4.37. Besides, the “solubility in G1/S (log2)” value in series [2] is -1.92. In addition, the melting temperature in series [3] (cell cycle stage: G1/S) worked out at 54.3 °C; in series [3] (cell cycle stage: mitosis), 52 °C. The “solubility change mitosis (log2)” value in series [4] came to 0.921.

The values above are taken from the supplement of paper PMC5998384.
